Among the data in paper PMC4850266 are stoichiometry N values, retold here.

This assay deals with A. fumigatus FKBP12(V91C) (Aspergillus fumigatus). Put plainly: cross-linking; disulfide trapping through the single cysteine V91C; protein purified from C41(DE3) and SHuffle cells without reducing agent; nonreducing SDS-PAGE.

A. fumigatus FKBP12(V91C) (enzyme): the stoichiometry N was determined as 2.

As a reminder, the stoichiometry N is a count of units in the complex or per binding partner.
